Consider 41 sequences from the nanobody polyreactivity screen of Harvey et al. (2022).

The data set can be described thus: yeast display, Sf9 membrane polyspecificity reagent, FACS + sequencing; frameworks hold sequencing errors. In a few lines:
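A nanobody's polyreactivity label depends on the gate it was sorted from. Yeast display cells were stained with 10% biotinylated, detergent-solubilized Sf9 membrane reagent for 1 hour at 4 °C, enriched on streptavidin microbeads and sorted by FACS. The low and high (top ~1%) gates were set on anti-HA fluorescence for expression and streptavidin fluorescence for reagent binding.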
With “QVQLVESGGGLVQAGGSLRLSCAASGSIFIYYAMGWYRQAPGKEREFVAAISYSDGDTYYADSVKGRFTISRDNAKNTVYLQMNSLKPEDTAVYYCAAEVPQYYDVGWEDHWGQGTQVTVSS”, the “polyreactivity (PSR sort gate)” value was “high polyreactivity”.
With “QVQLVESGGGLVQAGGSLRLSCAASGSIFIYYAMGWYRQAPGKERELVAAINTGGTTYYADSVKGRFTISRDNAKNTVYLQMNSLKPEDTAVYYCAKYIAYYGYVPSPWDHPGDDYWGQGTQVTVSS”, the “polyreactivity (PSR sort gate)” value was “low polyreactivity”.
The entry for “QVQLVESGGGLVQAGGSLRLSCAASGSIFIYYAMGWYRQAPGKERELVAAISFSGARTYYADSVKGRFTISRDNAKNNVSLQMNSLKPEDTAVYYCNVEIGTGDYDYWGQGTQVTVSS” is “low polyreactivity”; for “QVQLVESGGGLVQAGGSLRLSCAASGSIFKANTMGWSRQAPGKERELVAAISGSGGRTRYADSVRGRFTISRDNAKNTVYLQMNSLKPDVTAVYYCAATDRGGYYYWGQGTQVTVSS” it is “high polyreactivity”.
Turning to “QVQLVESGGGLVQAGGSLRLSCAASGSIFKAYDMGWYRPAPGKERELVAGISSSDSTYYADSVKGRFSISRDNAKNTVYLQLNSLKPEDTAVYYCAADPVFAAAYIHLYEYWGQGTQVTVSS”, the “polyreactivity (PSR sort gate)” value is “low polyreactivity”.
For “QVQLVESGGGLVQAGGSLRLSCAASGSIFKENAMGWYRQAPGKERELVAAITSSGGNTYYADSVKGRFTISRDHAKNTVYIQMNSLKPEDTAVYYCNAGVPVRSTTTDGYWGQGTQVNVSS” the value was “high polyreactivity”; for “QVQLVESGGGLVQAGGSLRLSCAASGSIFKEYAMGWYRQAPGKERELVATISWSGGSTYYADSVKGRFTISRDNAKNTVYLQMNSLKPEDTAVYYCNKSTPWWYVVRYDYWGQGTQVTVSS”, “high polyreactivity”.
For “QVQLVESGGGLVQAGGSLRLSCAASGSIFKHNDMGWYRQAPGKERELVAAISRSGGATYYAHSVKGRFTISRDNAKNTVYLQMNSLKPEDTAVYYCNAGRRTARYGYWGQGTQVTVSS” the value was “high polyreactivity”.
The entry for “QVQLVESGGGLVQAGGSLRLSCAASGSIFKKYAMGWYRQAPGKERELVAAISKSGGSTYYADSVKGRFTISRDNAKNTVYLQMNSLKPEDTAVYYCAAAAGGSAYWDYDYWGQGTQVTVSS” is “low polyreactivity”.
With “QVQLVESGGGLVQAGGSLRLSCAASGSIFKLNAMGWYRQAPGKERELVAAISRGGRKYYADSVKGRFTISRDNAKNTVYLQMNSLKPEDTAVYYCAADASSQIWYYPRDDYWGQGTQVTVSS”, the “polyreactivity (PSR sort gate)” value is given as “low polyreactivity”.
For “QVQLVESGGGLVQAGGSLRLSCAASGSIFKRNAMGWYRQAPGKERELVASITWRGGRTYYADSVKGRFTISRDNAKNTVYLQMNILKPEDTAVYYCATTQYTSHYDAYGYWGQGTQVTVSS” the value was “high polyreactivity”; for “QVQLVESGGGLVQAGGSLRLSCAASGSIFKRNAMGWYRQAPGKERQLVASISWSGSRTYYADSVKGRFTISRDNAKNTVYLQMISLKPEDTAVYYCARRIYGGHPSQSTQGDFYYWGQGTQVTVSS”, “high polyreactivity”.
For “QVQLVESGGGLVQAGGSLRLSCAASGSIFKRNVMGWYRQAPGKERELVAAITWSGASTYYADSVKGRFTISRDNAKITVYLQMNSLKPEDTAVYYCAARGPSRRRDGSDYWGQGTQVTVSS” the value was “high polyreactivity”.
The entry for “QVQLVESGGGLVQAGGSLRLSCAASGSIFKSNAMGWYRQAPGKERELVAGISWGGGSTYYADSVKGRFTISRDNAKNTVYLQMNSLKPEDTAVYYCAAYVYYRPSALAVTGDYYWGQGTQVTVSS” is “low polyreactivity”; for “QVQLVESGGGLVQAGGSLRLSCAASGSIFKSYAMGLYRQAPGKEREFVASITKSGGTTYYADSVKGRFTISRDNAKNTVYLQMNSLKPEDTAVYYCAADWYRSSWTYNYWGQGTQVTVSS” it is “low polyreactivity”.
In the case of “QVQLVESGGGLVQAGGSLRLSCAASGSIFKSYAMGWYRQAPGKERELVAAISWSGTSTYYADSVKGRFTISRDHAKNTVYLQMNSLKPEDTAVYYCAASGDYGEYGYWGQGTQVTVSS”, the “polyreactivity (PSR sort gate)” value is listed as “low polyreactivity”.
For the sequence “QVQLVESGGGLVQAGGSLRLSCAASGSIFKSYAMGWYRQAPGKERELVAAITYRGGSTYYADSVKGRFTISRDNAKNTVYLQMNSLKPEDTAVYYCAKDQHRYYQVWGDYWGQGTQVTVSS”, the “polyreactivity (PSR sort gate)” value was “high polyreactivity”.
The entry for “QVQLVESGGGLVQAGGSLRLSCAASGSIFKSYAMGWYRQAPGKERELVAVISDSGSTYYADSVKGRFTISRDNAKNTVYLQMNSLKPEDTAVYYCRCRGRRNEYWGQGTQVTVSS” is “high polyreactivity”; for “QVQLVESGGGLVQAGGSLRLSCAASGSIFKTNAMGWYRQAPGKERELVAGISNGGSTNYADSVKGRFTISRDNAKNTVYLQMNSLKPEDTAVYYCAKKGYASRYFIYDYWGQGTQVTVSS” it is “low polyreactivity”.
For “QVQLVESGGGLVQAGGSLRLSCAASGSIFKTYAMGWYRQAPGKERELVAAITSSGGSTYYADSVKGRFTISRDNAKNTVYLQMNSLKPEDTAVYYCNARYWGYWGDHYDYWGQGTQVTVSS” the value was “high polyreactivity”; for “QVQLVESGGGLVQAGGSLRLSCAASGSIFKVYAMGWYRQAPGKERELVAAISRGGSTYADSVKGRFTISRDNAKNTVYLQMISLKPEDTAVYYCNATVGRIYVTRYDYWGQGTQVTVSS”, “high polyreactivity”; for “QVQLVESGGGLVQAGGSLRLSCAASGSIFKYNAMGWYRQAPGKEREFVAAISRSGGSTYYADSVKGRFTISRDNAKNTVYLQMNSLKPEDTAVYYCATTSRYSWSDYWGQGTQVTVSS”, “high polyreactivity”.
The entry for “QVQLVESGGGLVQAGGSLRLSCAASGSIFKYYALGWYRQAPGKERELVAAITSGVSTYADSVKGRFTISRDNAKNTVYLQMNSLKPEDTAVYYCAVRVTGPRGDYWGQGTQVTVSS” is “low polyreactivity”.
Consider “QVQLVESGGGLVQAGGSLRLSCAASGSIFKYYAMGWYRKAPGKERELVAAISYRVGRTYYADSVKGRFTISRDNAKNTVYLQMNSLKPEDTAVYYCNTAYLSGQEYDYWGQGTQVTVSS”, for which the “polyreactivity (PSR sort gate)” value is on record as “high polyreactivity”.
The entry for “QVQLVESGGGLVQAGGSLRLSCAASGSIFKYYAMGWYRQAPGKEREFVAAITRSGGSTYYADSVKGRFTISRDNAKNTVYLQMNSLKPEDTAVYYCAARSYARPGGSRFDYWGQGTQVTVSS” is “high polyreactivity”.
Consider “QVQLVESGGGLVQAGGSLRLSCAASGSIFKYYAMGWYRQAPGKERELVAAISSGGRTNYADSVKGRFTISRDNAKNTVYLQMNSLKPEDTAVYYCAAGWYRKHRQPSGVGGDYWGQGTQVTVSS”, for which the “polyreactivity (PSR sort gate)” value was “high polyreactivity”.
As for “QVQLVESGGGLVQAGGSLRLSCAASGSIFKYYAMGWYRQAPGKERELVAAISSSGGSTYYADSVKGRFTISRDYAKYTVYCQMNSLKPQDTAVYYCNTPYIWKNYDYWGQGSQVTVSS”, the “polyreactivity (PSR sort gate)” value is reported as “high polyreactivity”.
With “QVQLVESGGGLVQAGGSLRLSCAASGSIFKYYSMGWYRQAPGKERELVADISRSGGRTYYADSVKGRFTISRDNAKNTVYLQMNSLKPEDTAVYYCAALDTYQYFRILYGTYEYWGQGTQVTVSS”, the “polyreactivity (PSR sort gate)” value was “high polyreactivity”.
Turning to “QVQLVESGGGLVQAGGSLRLSCAASGSIFKYYTMGWYRQAPGKERELVSGISYRGGSTYYADSVKGRFTISRDNAKNTVYLQMNSLKPEDTAVYYCATGSGFSPRRNTFRYGYWGQGTQVTVSS”, the “polyreactivity (PSR sort gate)” value was “high polyreactivity”.
For “QVQLVESGGGLVQAGGSLRLSCAASGSIFLAYAMGWDRQAPGKEREFVAAITWSGDSTYYADSVKGRFTISRDNAKNTVYLQMNSLKPEDTAVYYCAADYFGGPSYEFDYWGQGTQVTVSS” the value was “low polyreactivity”; for “QVQLVESGGGLVQAGGSLRLSCAASGSIFLAYAMGWYRQAPGKEREFVAAISFSDGSTYYADSVKGRFTISRDNAKNTVYLQMNSLKPEDTAVYYCNKGASPVDYDYWGQGTQVTVSS”, “low polyreactivity”.
For “QVQLVESGGGLVQAGGSLRLSCAASGSIFLGNAMGWYRQAPGKERELVAGITNGDNTNYADSVKGRFTISRDNAKNTDYLQMNSLKPEDTAVYYCATGPYLIYDYWGQGTQVTVSS” the value was “low polyreactivity”; for “QVQLVESGGGLVQAGGSLRLSCAASGSIFLGYTMGWYRPAPGKERELVAAISTRGGSTYYADSVKGRFTISRDNAKNTVYLQMNSLKPEDTAVYYCKARSRGRASGYDYWGQGTQVTVSS”, “high polyreactivity”.
On to “QVQLVESGGGLVQAGGSLRLSCAASGSIFLHNAMGWYRQAPGKDRELVAAISGTGGRTYYADSVKGRFTISRDNAKNTVYLQMNSLKPEDTAVYYCAKAARTRGGYGYWGQGTQVTVSS”, for which the “polyreactivity (PSR sort gate)” value was “high polyreactivity”.
For “QVQLVESGGGLVQAGGSLRLSCAASGSIFLIYAMAWYRQAPGKERELVAAISSGGSTYYADSVKGRFTISRDNAKNTVYLQMNSLKPEDTAVYYCATYSTSVAYHLYYWGQGTQVTVSS” the value was “low polyreactivity”; for “QVQLVESGGGLVQAGGSLRLSCAASGSIFLIYAMGWYRQAPGKERELVAAISSGGSTYYADSVKGGFTISRDNAKNTVYLQMNSLKPEDTAVYYCATYSTSVGYHLYYWGQGTQVTVSS”, “low polyreactivity”.
Take “QVQLVESGGGLVQAGGSLRLSCAASGSIFLKNVMGWYRQAPGKERELVAAITARGGATYYADSVKGRFTISRDNAKKTVYLQLNSQKPEDTAVYYCAARARVVPSLGNPRMDYWGQGTQVTVSS”: the “polyreactivity (PSR sort gate)” value is listed as “high polyreactivity”.
Turning to “QVQLVESGGGLVQAGGSLRLSCAASGSIFLKYDMGWYRQAPGKERELVAAISRGGDTNYADSVKGLFTISRDNAKNCVYLQMNSLKPEDTAVYDCAARPGLYFTRRGRYYLGQGTQVTVSS”, the “polyreactivity (PSR sort gate)” value is listed as “high polyreactivity”.
For “QVQLVESGGGLVQAGGSLRLSCAASGSIFLLYAMGWYRQAPGKERELVAAISTRDGSTYYADSVKGRFTLSRDNAKNTVYLQMNSLKPEDTAVYYCATLYSYNYWGQGTQVTVSS” the value was “high polyreactivity”; for “QVQLVESGGGLVQAGGSLRLSCAASGSIFLLYAMGWYRQAPGKERELVARISWSGDNTRYADSVKGRFTISRDNAKNTVFLQMNSLKPEDTAVYYCNAYYFYGQWKGYDYWGQGTQVTVSS”, “low polyreactivity”.
With “QVQLVESGGGLVQAGGSLRLSCAASGSIFLLYAMGWYRQAPGKERELVARISWSGDNTRYADSVKGRFTISRDNEKNTVYLQMNSLKPEDTAFYYCNAVTFSWDYGYWGQGSQVTVSS”, the “polyreactivity (PSR sort gate)” value is “low polyreactivity”.
